Data taken from patent US20190241886A1 (ADAGENE, published 2019).
Positions count from the first letter of the chain named.

B1: TY21242 (antibody, V domains shown)
VH: EVQLVESGGGLVQPGGSLRLSCAASGFSLSTGGVGVGWIRQAPGKGLEWLALIDWADDKYYSPSLKSRLTISRDNSKNTLYLQLNSLRAEDTAVYYCARGGSDTVIGDWFAYWGQGTLVTVSS
VL: DIQLTQSPSSLSASVGDRVTITCRASQSIGSYLAWYQQKPGKAPKLLIYDASNLETGVPSRFSGSGSGTDFTLTISSLQPEDFATYYCQQGYYLWTFGQGTKVEIK
notes: Anti-human-CD137 antibody; the isotype of the parent is not restated; also called parental antibody TY21242; parental CD137 antibody
B2: TY22596 (antibody, V domains shown)
VH: B1 VH
VL: EVGSYYHDYDDCRVLPRRCFNSGRSAGGGGSPLGLAGSGGSDIQLTQSPSSLSASVGDRVTITCRASQSIGSYLAWYQQKPGKAPKLLIYDASNLETGVPSRFSGSGSGTDFTLTISSLQPEDFATYYCQQGYYLWTFGQGTKVEIK
notes: Full IgG4 expressed in mammalian cells, uncleaved
B3: TY22591 (antibody, V domains shown)
VH: B1 VH
VL: EVGSYSSTHAHCHHSPANCISSGRSAGGGGSPLGLAGSGGSDIQLTQSPSSLSASVGDRVTITCRASQSIGSYLAWYQQKPGKAPKLLIYDASNLETGVPSRFSGSGSGTDFTLTISSLQPEDFATYYCQQGYYLWTFGQGTKVEIK
notes: as for B2
B4: TY22598 (antibody, V domains shown)
VH: B1 VH
VL: EVGSYSNNFASCLWRHRSCADSGRSAGGGGSPLGLAGSGGSDIQLTQSPSSLSASVGDRVTITCRASQSIGSYLAWYQQKPGKAPKLLIYDASNLETGVPSRFSGSGSGTDFTLTISSLQPEDFATYYCQQGYYLWTFGQGTKVEIK
notes: as for B2
B5: TY22586 (antibody, V domains shown)
VH: B1 VH
VL: EVGSYPTDLDACADAPNHCHFSGRSAGGGGSPLGLAGSGGSDIQLTQSPSSLSASVGDRVTITCRASQSIGSYLAWYQQKPGKAPKLLIYDASNLETGVPSRFSGSGSGTDFTLTISSLQPEDFATYYCQQGYYLWTFGQGTKVEIK
notes: as for B2
B6: TY22594 (antibody, V domains shown)
VH: B1 VH
VL: B2 VL with Y6D, H7T, D11F, R13P, V14I, P16R, R17H, F20D, N21S
notes: as for B2
B7: TY22595 (antibody, V domains shown)
VH: B1 VH
VL: EVGSYNDYNYHCKWRPSRCHNSGRSAGGGGSPLGLAGSGGSDIQLTQSPSSLSASVGDRVTITCRASQSIGSYLAWYQQKPGKAPKLLIYDASNLETGVPSRFSGSGSGTDFTLTISSLQPEDFATYYCQQGYYLWTFGQGTKVEIK
notes: as for B2
B8: TY22599 (antibody, V domains shown)
VH: B1 VH
VL: B2 VL with Y6T, H7D, D8N, D11Y, R13P, V14R, P16R, R18K, F20Y, N21H
notes: as for B2
B9: TY22402 (as listed in Table 11) (antibody, V domains shown)
VH: EVQLVESGGGLVQPGGSLRLSCAASGYSISSGYHWSWIRQAPGKGLEWLARIDWDDDKYYSTSLKSRLTISRDNSKNTLYLQLNSLRAEDTAVYYCARSYVYFDYWGQGTLVTVSS
VL: EVGSYIVHHSDCDAFYPYCDSSGRSAGGGGTPLGLAGSGGSDIQLTQSPSSLSASVGDRVTITCRASQSVRGRFLAWYQQKPGKAPKLLIYDASNRATGIPSRFSGSGSGTDFTLTISSLQPEDFATYYCQQSSSWPPTFGQGTKVEIKR
notes: kept apart from m3; Expressed in mammalian cells; isotype not restated
B10: TY22404 (as listed in Tables 11 and 14) (antibody, V domains shown)
VH: B9 VH
VL: EVGSYPNPSSDCVPYYYACAYSGRSAGGGGTPLGLAGSGGSDIQLTQSPSSLSASVGDRVTITCRASQSVRGRFLAWYQQKPGKAPKLLIYDASNRATGIPSRFSGSGSGTDFTLTISSLQPEDFATYYCQQSSSWPPTFGQGTKVEIKR
notes: kept apart from m5; Expressed in mammalian cells; isotype not restated
B11: TY22566 (antibody, V domains shown)
VH: B9 VH
VL: B10 VL with S9A, T31S
notes: IgG1, uncleaved; mask derived from B13192 or B13197 to remove a potential glycosylation site
B12: TY22564 (antibody, V domains shown)
VH: B9 VH
VL: EVGSYYSAYPACDSHYPYCNSAGRSAGGGGSPLGLAGSGGSDIQLTQSPSSLSASVGDRVTITCRASQSVRGRFLAWYQQKPGKAPKLLIYDASNRATGIPSRFSGSGSGTDFTLTISSLQPEDFATYYCQQSSSWPPTFGQGTKVEIKR
notes: as for B11
B13: TY22563 (antibody, V domains shown)
VH: B9 VH
VL: B12 VL with N20Q, A22S
notes: as for B11
B14: TY22565 (antibody, V domains shown)
VH: B9 VH
VL: B10 VL with N7Q, T31S
notes: as for B11
B15: TY22404 (antibody, IgG1, V domains shown)
VH: B9 VH
VL: B10 VL with T31S
notes: IgG1 from HEK293F cells, uncleaved; also called peptide name B13197
B16: TY22401 (antibody, V domains shown)
VH: B9 VH
VL: EVGSYNFVADSCPDHPYPCSASGRSAGGGGSPLGLAGSGGSDIQLTQSPSSLSASVGDRVTITCRASQSVRGRFLAWYQQKPGKAPKLLIYDASNRATGIPSRFSGSGSGTDFTLTISSLQPEDFATYYCQQSSSWPPTFGQGTKVEIKR
notes: IgG1 from HEK293F cells, uncleaved; also called peptide name B13189
B17: TY22402 (antibody, IgG1, V domains shown)
VH: B9 VH
VL: B9 VL with T31S
notes: IgG1 from HEK293F cells, uncleaved; also called peptide name B13180

These binders were tested against T1, Human CD137 displayed on yeast cells (human, UniProt Q07011 24-186, limits assumed) (assay: flow cytometry on yeast cells displaying human CD137; ratio to parental TY21242).
T1 construct: Yeast cells displaying human CD137, stained with serial dilutions of antibody; also called human CD137 on the cell surface
Protocol: (§1) The masking efficiency was then measured through flow cytometry. Briefly, yeast cells displaying human CD137 on their surface washed twice with PB SA buffer, and 50 μL (1×10̂6) cells were dispensed into each well of a 96 well plate. Cells were then incubated with 3-fold serial dilutions of antibodies for 1 hour on ice, washed once with PBSA buffer, and then incubated with 100 μL of PE conjugated mouse anti-human Fc (1 μg/ml) for 30 minutes on ice. The cells were then washed once prior to analysis by flow cytometry (Beckman® CytoFlex).
Work on B1 yielded a Masking efficiency of 1. B2 was tested, and the Masking efficiency was 20.8. B3 gave a Masking efficiency of 38.3. B4 gave a Masking efficiency of 30.5. In the case of B5, the Masking efficiency is reported as 300 fold. With B6 the Masking efficiency was 83.7. B7 showed a Masking efficiency of 379. B8 was tested, and the Masking efficiency was 348.

The binders below were run against T1, Human CD137 displayed on yeast cells (assay: flow cytometry on yeast cells displaying human CD137; column headed EC50 / KD (nM)).
Protocol: as §1
B1 showed an EC50 of 0.28 nM. B2 gave an EC50 of 5.86 nM. B3 showed an EC50 of 10.8 nM. Work on B4 yielded an EC50 of 8.61 nM. Binder B6 has an EC50 of 23.6 nM. B7 showed an EC50 of 107 nM. With B8 the EC50 was 98.1 nM.

Each binder was assayed against T2, Recombinant human CTLA4-Fc (human, UniProt P16410 36-161, limits assumed) (assay: ELISA EC50 divided by EC50 of parental TY21580 (FIG. 24B)).
T2 construct: Coated on the ELISA plate at 1 ug/mL; also called antigen; not shown: Fc part
T2 sequence (looked up): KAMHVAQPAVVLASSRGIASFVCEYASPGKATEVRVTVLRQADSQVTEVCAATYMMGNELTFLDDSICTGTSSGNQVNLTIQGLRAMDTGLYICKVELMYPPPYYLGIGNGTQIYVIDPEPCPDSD
Protocol: (§2) Recombinant human CTLA4-Fc was diluted to 1μg/mL in PBS and coated on a Maxisorp plate at 4° C. overnight. Plates were blocked with PBS supplemented with 3% non-fat milk at 37° C. for 1 hour. After washing, 100 μL of 3-fold serial dilutions of antibodies were added to each well. After incubation at 37° C. for 1 hour, plates were washed four times, and 100 μL HRP conjugated anti-human IgG (Fab specific) (1:6000 dilution) was added to each well. Plates were incubated at 37° C. for 1 hour, washed four times, and then 50 μL TMB substrate solution was added to each well, and the plate was incubated at room temperature. Absorbance at 450 nm was measured after the reactions were stopped with 50 μL H₂SO₄ per well. The EC₅₀ was evaluated by fitting the ELISA data using the asymmetrical sigmoidal (five-parameter logistic equation) model of GraphPad Prism 6 software.
Binder B9 has a Masking efficiency of 554. Work on B10 yielded a Masking efficiency of 572.

These binders were tested against T2, Recombinant human CTLA4-Fc (assay: ELISA EC50 divided by EC50 of parental TY21580, third block of Table 6).
Protocol: as §2
For B11, the Masking efficiency was 489. With B12 the Masking efficiency was 117. For B13, the Masking efficiency was 144. B14 showed a Masking efficiency of 632.

The binders below were run against T2, Recombinant human CTLA4-Fc (assay: ELISA EC50 divided by EC50 of parental TY21580 (FIG. 24A)).
Protocol: as §2
Work on B9 yielded a Masking efficiency of 243. With B10 the Masking efficiency was 308.

What follows are binders tested against T2, Recombinant human CTLA4-Fc (assay: ELISA EC50 divided by EC50 of parental TY21580, data batch 2).
Protocol: as §2
B15 was tested, and the Masking efficiency was 385. B16 showed a Masking efficiency of 48. B17 gave a Masking efficiency of 377.

Each binder was assayed against T2, Recombinant human CTLA4-Fc (assay: ELISA EC50 divided by EC50 of parental TY21580, data batch 1).
Protocol: as §2
With B15 the Masking efficiency was 826. For B16, the Masking efficiency was 110. B17 gave a Masking efficiency of 2210.

Each binder was assayed against T2, Recombinant human CTLA4-Fc (assay: ELISA EC50 divided by EC50 of parental TY21580 (FIG. 25)).
Protocol: as §2
B10 showed a Masking efficiency of 469.
